{"source": "patent US20240262900A1", "about": "“MATERIALS AND METHODS FOR DIFFERENTIATING CREB REGULATEDTRANSCRIPTION COACTIVATOR 3” (JANSSEN BIOTECH, INC., priority 2021, published 2024)", "key": {"[1]": {"system": "phosphorylated CRTC3 in THP1 lysates", "test": "Immunoblotting of lysates of macrophage-differentiated, LPS-stimulated THP1 cells, untreated or incubated with dasatinib", "format": "binding, human", "settings": "recombinant mAb", "source_text": "(§1) Immunoblotting was done using the NuPAGE electrophoresis and western Blotting system (Invitrogen). Briefly, 0.1-0.15 microgram of WT or S329A mutant or S370A mutant recombinant protein along with WesternSure® Pre-stained Chemiluminescent Protein Ladder (Li-Cor) were loaded onto NuPAGE® Bis-Tris gels and separated by electrophoresis. Subsequently, proteins were transferred onto nitrocellulose membranes (iBlot® 2 Transfer Stacks, nitrocellulose, mini; ThermoFisher) using an iBlot 2® Gel Transfer Device (ThermoFisher). Specific bands on the nitrocellulose membranes were detected using the automatic Western blot-processing iBind™ Flex Western System (ThermoFisher) as per the manufacturer's recommendations. As primary antibodies served either undiluted hybridoma supernatant or recombinantly expressed mAbs at 0.25 microgram/ml, whereas Peroxidase AffiniPure Donkey Anti-Rabbit IgG (H+L) (Jackson ImmunoResearch) was used as secondary antibody at a 1:4000 dilution. The blots were developed using Amersham ECL Western Blotting Detection Reagent and an ImageQuant LAS4000 image scanner (both GE Healthcare Life Sciences).\nCells were then either left untreated or incubated with dasatinib at 10 micromolar for 1.5 hours before cell harvest. […] Cells were washed in cold PBS (Gibco) and lysed on ice in 50 mM Tris HCl (Alfa Aesar) at pH 7.4, 1 mM DTT, 1% (vol/vol) Triton X-100 (both ThermoFisher), 1 mM EDTA (Gibco), 1 mM EGTA (Alfa Aesar) supplemented with protease inhibitor (cOmplete™ ULTRA Tablets; Roche) and phosphatase inhibitor (Phosstop, Roche) as per the manufacturer's recommendations for 1 hour. Extracted proteins were harvested by collecting the supernatant after centrifugation of the lysate for 20 minutes. Protein concentrations were determined using the Pierce Detergent-compatible Bradford Assay kit (Pierce). Lysate proteins were separated by gel electrophoresis and detected by immunoblotting as described above. […] That the detected signals indeed corresponded to CRTC3 was verified in independent experiments, in which similarly treated THP1 lysates were developed using an antibody recognizing CRTC3 independent of its phosphorylation status (EPR3440; purified; rabbit; Abcam; data not shown)."}, "[2]": {"biological_target": "T1, CRTC3 phosphorylated at serine 329 (pSer329) (Homo sapiens, UniProt Q6UUV7)", "T1 construct": "All recombinant CRTC3 full-length protein versions are preceded with; FLAG (N); AVI (N); made in house; host or cells: Baculovirus expression system", "T1 sequence (Q6UUV7 1-619)": "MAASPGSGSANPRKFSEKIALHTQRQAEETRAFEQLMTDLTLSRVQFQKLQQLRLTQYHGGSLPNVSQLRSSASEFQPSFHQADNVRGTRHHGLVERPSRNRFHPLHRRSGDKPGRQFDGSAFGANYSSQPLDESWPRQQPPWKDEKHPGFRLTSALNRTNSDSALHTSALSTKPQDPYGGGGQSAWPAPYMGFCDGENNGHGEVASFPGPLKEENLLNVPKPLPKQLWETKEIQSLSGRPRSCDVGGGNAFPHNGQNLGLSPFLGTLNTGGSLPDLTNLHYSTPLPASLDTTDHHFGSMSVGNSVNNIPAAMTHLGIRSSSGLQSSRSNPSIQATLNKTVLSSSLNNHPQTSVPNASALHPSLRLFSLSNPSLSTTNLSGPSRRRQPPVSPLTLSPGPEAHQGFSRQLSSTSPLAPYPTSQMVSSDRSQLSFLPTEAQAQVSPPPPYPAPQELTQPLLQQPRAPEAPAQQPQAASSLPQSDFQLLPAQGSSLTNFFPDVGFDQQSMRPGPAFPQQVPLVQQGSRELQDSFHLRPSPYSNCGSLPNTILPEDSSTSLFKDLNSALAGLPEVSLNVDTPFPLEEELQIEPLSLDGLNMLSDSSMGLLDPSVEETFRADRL", "test": "Immunoblotting of in vitro phosphorylated recombinant CRTC3 wild type vs S329A mutant protein", "format": "binding", "settings": "for specific detection of human CRTC3 by phosphorylation state (conclusion of the experiments): serine 329", "source_text": "(§2) To facilitate the identification of hybridomas that produced antibodies specific for the phosphorylated immunizing peptides, CRTC3 proteins were designed that harbored serine to alanine mutations at either position 329 (S329A mutant) or 370 (S370A mutant; Table 3) rendering them unable to carry phosphate groups at positions 329 and 370, respectively. In addition, CRTC3 protein harboring the unmutated wild type (WT) amino acid sequence was produced as a control reagent (Table 3). Briefly, proteins were overexpressed in a Baculovirus expression system and purified using M2 anti-flag magnetic beads (Millipore-Sigma). The wild type protein was additionally subjected to subsequent size exclusion chromatography. All purified proteins were phosphorylated in vitro in the presence of internally produced SIK2 variant (6His-MBP-TEV-SIK2-PKD-UBA; SEQ ID NO: 187) and 1 mM ATP (Promega) in a buffer containing 50 mM Tris pH 7.5, 100 mM NaCl, 10 mM MgCl2 (all from Quality Biologicals), 0.1 mM EDTA (Corning), 1 mM DTT (MP Biomedicals). Phosphorylation reactions were quenched by the addition of excess EDTA.\nas §1"}, "[3]": {"biological_target": "T2, CRTC3 phosphorylated at serine 370 (pSer370) (Homo sapiens, UniProt Q6UUV7)", "T2 construct": "All recombinant CRTC3 full-length protein versions are preceded with; FLAG (N); AVI (N); made in house; host or cells: Baculovirus expression system", "T2 sequence (Q6UUV7 1-619)": "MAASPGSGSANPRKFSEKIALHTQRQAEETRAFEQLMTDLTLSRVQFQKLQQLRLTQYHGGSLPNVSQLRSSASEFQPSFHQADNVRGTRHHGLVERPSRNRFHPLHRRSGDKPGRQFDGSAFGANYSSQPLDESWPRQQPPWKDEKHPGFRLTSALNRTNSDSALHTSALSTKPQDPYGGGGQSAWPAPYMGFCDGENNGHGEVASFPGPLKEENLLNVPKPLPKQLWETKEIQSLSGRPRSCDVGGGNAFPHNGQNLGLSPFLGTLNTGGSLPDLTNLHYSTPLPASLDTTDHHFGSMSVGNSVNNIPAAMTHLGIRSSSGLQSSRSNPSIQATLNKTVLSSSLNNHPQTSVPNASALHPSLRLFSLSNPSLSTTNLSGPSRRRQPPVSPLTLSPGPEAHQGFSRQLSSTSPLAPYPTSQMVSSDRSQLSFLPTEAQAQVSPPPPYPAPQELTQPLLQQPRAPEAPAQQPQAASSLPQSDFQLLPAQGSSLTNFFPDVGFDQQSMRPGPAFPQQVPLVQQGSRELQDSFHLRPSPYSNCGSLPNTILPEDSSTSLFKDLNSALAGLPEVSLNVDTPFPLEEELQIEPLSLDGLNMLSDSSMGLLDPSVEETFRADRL", "test": "Immunoblotting of in vitro phosphorylated recombinant CRTC3 wild type vs S370A mutant protein", "format": "binding", "settings": "for specific recognition of human CRTC3 by phosphorylation state (conclusion of the experiments): serine 370", "source_text": "as §2, §1"}, "[4]": {"settings": "THP1 lysates not incubated with a SIK inhibitor (lane 3)"}, "[5]": {"settings": "THP1 lysates treated for 1.5 hours with dasatinib at 10 micromolar (lane 4)"}, "[6]": {"settings": "recombinantly expressed mAb at 0.25 microgram/ml, FIG. 2C"}, "[7]": {"settings": "undiluted hybridoma tissue culture supernatant as primary antibody, FIG. 2A"}, "[8]": {"settings": "recombinant mAb at 0.25 microgram/ml, FIG. 2D"}, "[9]": {"settings": "undiluted hybridoma supernatant as primary antibody, FIG. 2B"}}, "data": [{"molecule": "mAb #21: anti-phospho-Serine329 CRTC3 monoclonal antibody from rabbit hybridoma; VH SEQ ID NO: 99, VL SEQ ID NO: 100 (antibody, V domains shown) VH: QSVEESGGRLVTPGTPLTLTCTVSGIDLSSNTVSWVRQAPGKGLEWIGVSGYSGRPYYASWAKGRFTISKTSSTVHLKITSPTAEDTATYFCARGSVNVNIWGPGTLVTVSS VL: AQVLTQTASPVSAAVGGTVTINCQSSQSVYSSNRLSWFQQKPGQPPKLLMYYTSTLASGVPSRFKGSGSGTEFTLTISGVQCDDAATYYCLGGYDCDIADCSAFGGGTEVVVK", "values": [{"measurement": "immunoblot signal at the expected molecular size in THP1 lysates", "setting": "[1]; [4]", "value": "strong signal"}, {"measurement": "immunoblot signal at the expected molecular size in THP1 lysates", "setting": "[1]; [5]", "value": "strongly diminished"}, {"measurement": "recognition of recombinant CRTC3 WT vs S329A variant by western blot", "setting": "[2]; [6]", "value": "specifically recognized only recombinant CRTC3 protein harboring the WT sequence"}, {"measurement": "specific detection of human CRTC3 by phosphorylation state (conclusion of the experiments)", "setting": "[2]", "value": "specifically detected human CRTC3 only when phosphorylated at serine 329"}, {"measurement": "recognition of recombinant CRTC3 WT vs S329A variant by western blot", "setting": "[2]; [7]", "value": "specifically recognized only recombinant CRTC3 protein harboring the WT sequence"}]}, {"molecule": "mAb #82: anti-phospho-Serine329 CRTC3 monoclonal antibody from rabbit hybridoma; VH SEQ ID NO: 133, VL SEQ ID NO: 134 (antibody, V domains shown) VH: QSVEESGGRLVTPGTPLTLTCTVSGIDLSSNTVSWVRQAPGKGLEWIGVIGYSGNGYYASWAKGRFTISKTSTTVDLKMTSPTAEDTATYFCARGSVNCNIWGPGTLVTVSS VL: AQVLTQTASPVSAAVGGTVTINCQSSQSVISNNRLSWLQQKPGQPPKLLIYYASTLASGVPSRFKGSGSGTQFTLTISGVQCDDAATYYCLGGYDCNSADCSTFGGGTEVVVK", "values": [{"measurement": "immunoblot signal at the expected molecular size in THP1 lysates", "setting": "[1]; [4]", "value": "strong signal"}, {"measurement": "immunoblot signal at the expected molecular size in THP1 lysates", "setting": "[1]; [5]", "value": "strongly diminished"}, {"measurement": "recognition of recombinant CRTC3 WT vs S329A variant by western blot", "setting": "[2]; [6]", "value": "specifically recognized only recombinant CRTC3 protein harboring the WT sequence"}, {"measurement": "specific detection of human CRTC3 by phosphorylation state (conclusion of the experiments)", "setting": "[2]", "value": "specifically detected human CRTC3 only when phosphorylated at serine 329"}, {"measurement": "recognition of recombinant CRTC3 WT vs S329A variant by western blot", "setting": "[2]; [7]", "value": "specifically recognized only recombinant CRTC3 protein harboring the WT sequence"}]}, {"molecule": "mAb #157: anti-phospho-Serine370 CRTC3 monoclonal antibody from rabbit hybridoma; VH SEQ ID NO: 31, VL SEQ ID NO: 32 (antibody, V domains shown) VH: QEQLKESGGGLFKPMDILTVTCTVSGISLSSYGLSWVRQAPGNGLEWIGAIGASGSAYYASWAKSRSTITRNTNLNTVTLKMTSLTAADTATYFCKRNYIWGPGTLVTVSS VL: AQVLTQTASPVSAAVGGTVTINCQASQSVYSDNRLSWYQQKPGQPPKLLIYEASKLASGVPPRFSGSGSGTQFTLAISGVQCDDAATYYCQGSYDCNSADCSAFGGGTEVVVK", "values": [{"measurement": "immunoblot signal at the expected molecular size in THP1 lysates", "setting": "[1]; [4]", "value": "strong signal"}, {"measurement": "immunoblot signal at the expected molecular size in THP1 lysates", "setting": "[1]; [5]", "value": "strongly diminished"}, {"measurement": "signal with recombinant CRTC3 WT vs S370A mutant by western blot", "setting": "[3]; [8]", "value": "specific signal only with WT"}, {"measurement": "specific recognition of human CRTC3 by phosphorylation state (conclusion of the experiments)", "setting": "[3]", "value": "specifically recognized human CRTC3 only when phosphorylated at serine 370"}, {"measurement": "signal with recombinant CRTC3 WT vs S370A mutant by western blot", "setting": "[3]; [9]", "value": "specific signal only with WT"}]}, {"molecule": "mAb #170: anti-phospho-Serine370 CRTC3 monoclonal antibody from rabbit hybridoma; VH SEQ ID NO: 65, VL SEQ ID NO: 66 (antibody, V domains shown) VH: QSMKESEGGLFKPTDTLTLTCTVSGFSLSRYGVIWVRQAPGKGLEFIGYISSTGSTYYASWAKSRSTITRNTNENTVTLKVTSLTAADTATYFCAQSGLGYDGGRNIWGPGTLVTVSS VL: AAVLTQTPSPVSAAVGGTVSISCQSSKSVANSNWLSWYQQKPGQPPKLLIYSASTLASGAPSRFKGSGSGTQFTLTISDVQCDDAATYYCAGGYSDISDIFGFGGGTEVVVK", "values": [{"measurement": "immunoblot signal at the expected molecular size in THP1 lysates", "setting": "[1]; [4]", "value": "strong signal"}, {"measurement": "immunoblot signal at the expected molecular size in THP1 lysates", "setting": "[1]; [5]", "value": "strongly diminished"}, {"measurement": "signal with recombinant CRTC3 WT vs S370A mutant by western blot", "setting": "[3]; [8]", "value": "specific signal only with WT"}, {"measurement": "specific recognition of human CRTC3 by phosphorylation state (conclusion of the experiments)", "setting": "[3]", "value": "specifically recognized human CRTC3 only when phosphorylated at serine 370"}, {"measurement": "signal with recombinant CRTC3 WT vs S370A mutant by western blot", "setting": "[3]; [9]", "value": "specific signal only with WT"}]}]}
